Test results reported in patent publication US20090214662A1 (UNIVERSITY OF MARYLAND BALTIMORE, published 2009).

Experiments:
[1] = molecular target: Lactobacillus brevis ATCC 8287 SlpA surface layer protein (Lactobacillus brevis ATCC 8287) (UniProt Q05044); test: SPR (BIAcore 3000), immobilised SlpA preincubated with 1 mM benzamidine, fibronectin injected, steady-state evaluation
[2] = molecular target: Lactobacillus brevis ATCC 8287 SlpA surface layer protein (Lactobacillus brevis ATCC 8287) (UniProt Q05044); test: SPR (BIAcore 3000), SlpA immobilised on CM5 chip, fibronectin injected, 1:1 Langmuir fit
[3] = molecular target: Lactobacillus brevis ATCC 8287 SlpA surface layer protein (Lactobacillus brevis ATCC 8287) (UniProt Q05044); test: SPR (BIAcore 3000), SlpA immobilised on CM5 chip, collagen injected, 1:1 Langmuir fit
[4] = molecular target: Lactobacillus brevis ATCC 8287 SlpA surface layer protein (Lactobacillus brevis ATCC 8287) (UniProt Q05044); test: SPR (BIAcore 3000), Kd of laminin compared with Kd of fibronectin on immobilised SlpA
[5] = molecular target: T1, Laminin (basement membrane of Engelbreth-Holm-Swarm mouse sarcoma) (mouse, UniProt P19137 25-3083; P02469 22-1786; P02468 34-1607); test: SPR (BIAcore 3000), immobilised SlpA preincubated with 1 mM benzamidine, laminin injected, 1:1 Langmuir fit
T1 construct: mature; Bought from Sigma

[6] = molecular target: T1, Laminin (basement membrane of …); test: SPR (BIAcore 3000), SlpA immobilised on CM5 chip, laminin injected, 1:1 Langmuir fit
Method: (§1) The interaction between SlpA and extracellular matrix components was evaluated by surface plasmon resonance on a BIAcore 3000 instrument. Purified SlpA protein in 5M LiCl was dialyzed against double-distilled water overnight. Monomeric and/or oligomeric protein was separated from self-assembled material by centrifugation at 20,000×g for 20 min. SlpA protein (50 ug/ml in 10 mM Sodium Phosphate pH 7.4) was covalently coupled to CM5 carboxylated dextran chips using N-hydroxysuccinimide (NHS) chemistry. […] Kinetic analysis was carried out at 25° C. in 10 mM HEPES, 150 mM NaCl, 3 mM EDTA, 0.005% surfactant P20, pH 7.4. […] Binding was determined experimentally by comparing the number of RU's observed as a function of time to an activated and blocked flow cell containing no linked protein. […] Data were evaluated using the BIAevaluation 4.1 software. The association and dissociation data were modeled with the BIAevaluation 4.1 software (Pharmacia Biosensor AB). Following subtraction of data from the control flow cell, the binding data produced for the various protein concentrations were fitted simultaneously, assuming the 1:1 Langmuir model.
(§2) The association and dissociation rate constants were estimated from the binding data at different concentrations using the BIAevaluation software and from these values the binding constant was calculated (Table 2).

[7] = molecular target: T2, Fibrinogen (human plasma) (human, UniProt P02671 20-629; P02675 31-491; P02679 27-453, limits assumed); test: SPR (BIAcore 3000), SlpA immobilised on CM5 chip, fibrinogen injected; Table 2 value
T2 construct: mature; Bought from Calbiochem
T2 sequence (looked up) 1: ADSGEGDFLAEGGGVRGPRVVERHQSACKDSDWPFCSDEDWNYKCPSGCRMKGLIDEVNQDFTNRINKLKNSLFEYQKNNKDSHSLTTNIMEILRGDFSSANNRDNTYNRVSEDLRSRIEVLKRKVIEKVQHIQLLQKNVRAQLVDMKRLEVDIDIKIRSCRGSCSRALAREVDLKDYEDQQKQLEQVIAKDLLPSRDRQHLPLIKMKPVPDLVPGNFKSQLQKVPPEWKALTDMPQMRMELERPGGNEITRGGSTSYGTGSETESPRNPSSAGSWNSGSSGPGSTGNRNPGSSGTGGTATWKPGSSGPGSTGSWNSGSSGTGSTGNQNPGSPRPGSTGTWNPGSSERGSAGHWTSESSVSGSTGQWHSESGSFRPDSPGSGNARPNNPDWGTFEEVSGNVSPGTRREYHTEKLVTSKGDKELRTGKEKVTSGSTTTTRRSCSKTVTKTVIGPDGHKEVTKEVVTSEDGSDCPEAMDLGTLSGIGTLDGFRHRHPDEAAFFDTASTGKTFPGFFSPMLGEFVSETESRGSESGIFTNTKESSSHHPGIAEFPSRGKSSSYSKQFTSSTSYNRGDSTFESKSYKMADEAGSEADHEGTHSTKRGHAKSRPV
T2 sequence (looked up) 2: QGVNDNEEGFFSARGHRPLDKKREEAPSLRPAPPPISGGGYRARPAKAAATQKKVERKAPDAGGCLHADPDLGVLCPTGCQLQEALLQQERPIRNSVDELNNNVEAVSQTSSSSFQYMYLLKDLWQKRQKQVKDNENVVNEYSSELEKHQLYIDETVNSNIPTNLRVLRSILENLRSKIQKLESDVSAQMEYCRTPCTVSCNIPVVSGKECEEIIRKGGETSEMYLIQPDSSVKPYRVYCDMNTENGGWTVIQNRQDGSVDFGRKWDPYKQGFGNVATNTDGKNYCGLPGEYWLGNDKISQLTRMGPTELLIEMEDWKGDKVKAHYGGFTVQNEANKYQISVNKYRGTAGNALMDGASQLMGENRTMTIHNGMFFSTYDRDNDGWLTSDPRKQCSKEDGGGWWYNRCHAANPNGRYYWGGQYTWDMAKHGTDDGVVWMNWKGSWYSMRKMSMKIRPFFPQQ
T2 sequence (looked up) 3: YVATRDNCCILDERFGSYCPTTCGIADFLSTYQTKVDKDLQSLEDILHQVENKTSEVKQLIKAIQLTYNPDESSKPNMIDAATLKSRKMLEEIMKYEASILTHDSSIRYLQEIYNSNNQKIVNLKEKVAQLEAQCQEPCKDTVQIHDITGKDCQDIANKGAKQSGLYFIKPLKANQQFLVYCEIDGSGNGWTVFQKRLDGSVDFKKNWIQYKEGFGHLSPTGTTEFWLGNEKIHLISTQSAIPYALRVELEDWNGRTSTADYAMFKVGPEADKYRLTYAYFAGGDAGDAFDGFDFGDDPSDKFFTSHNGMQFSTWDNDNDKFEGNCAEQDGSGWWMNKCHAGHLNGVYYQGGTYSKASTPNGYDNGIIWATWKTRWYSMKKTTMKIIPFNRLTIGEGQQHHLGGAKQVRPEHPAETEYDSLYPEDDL
Method: as §1, §2

**Q.** Which results are given for “Fibronectin (human plasma) (from UniProt P02751 32-2477)”?
**A.** Kd [1]: 30.1 µM; Kd [2]: 0.0898 µM; koff [2]: 0.00632 s⁻¹

**Q.** Which results are given for “Collagen (human placenta Type IV) (from UniProt P02462 28-1440; P08572 26-1484)”?
**A.** Kd [3]: 31.8 µM; koff [3]: 0.0011 s⁻¹

**Q.** Which fold higher affinity than for fibronectin [4] does the source give for “Laminin (basement membrane of Engelbreth-Holm-Swarm mouse sarcoma), P19137 25-3083; P02469 22-1786; P02468 34-1607” here?
**A.** Its fold higher affinity than for fibronectin is 3 fold.

B1: Lactobacillus brevis ATCC 8287 SlpA surface layer protein (other, UniProt Q05044 31-465, looked up)
chain: KSYATAGAYSTLKTDAATRNVEATGTNALYTKPGTVKGAKVVASKATMAKLASSKKSADYFRAYGVKTTNRGSVYYRVVTMDGKYRGYVYGGKSDTAFAGGIKSAETTTKADMPARTTGFYLTDTSKNTLWTAPKYTQYKASKVSLYGVAKDTKFTVDQAATKTREGSLYYHVTATNGSGISGWIYAGKGFSTTATGTQVLGGLSTDKSVTATNDNSVKIVYRTTDGTQVGSNTWVTSTDGTKAGSKVSDKAADQTALEAYINANKPSGYTVTNPNAADATYGNTVYATVSQAATSKVALKVSGTPVTTALTTADANDKVAANDTTANGSSVAGSTVYAAGTKLAQLTTDLTGEKGQVVTLTAIDTDLEDATFTGTTTYYSDLGKAYHYTYTYNKDSAASSNASTQFGSNVTGTLTATLVMGKSTATANGTTWFN
notes: mature; Native protein purified from the bacterium; The soluble monomeric and/or oligomeric fraction after dialysis and centrifugation was covalently coupled (NHS chemistry) to a CM5 chip, about 1700 RU; also called S-layer protein; Surface Layer Protein A
**Q.** With B1 as the molecule, how does the Kd [5] read?
**A.** Its Kd is 0.066 µM.

**Q.** And the koff [5]?
**A.** Its koff is 0.002 s⁻¹.

**Q.** And the Kd [6]?
**A.** Its Kd is 0.0267 µM.

**Q.** And the koff [6]?
**A.** The koff was 0.0013 s⁻¹.

**Q.** And the Kd [7]?
**A.** Its Kd is 26.1 µM.
